Earlier results on 1 substance are cited in patent US9358478B2, “Spray-drying apparatus and methods of using the same” (Bend Research, Inc., priority 2010, dated 2016).

For this data set the following is noted: in words.

In the case of Peptide YY (PYY) [Active Agent 3], the solubility in water entry is on record as “soluble”.
